Results: publication PMC11079029, “Intramolecular autoinhibition regulates the selectivity of PRPF40A tandem WW domains for proline-rich motifs” (Nature Communications, 2024)

Experiments:
Experiment in all cases: ITC; GB1-peptide or GB1-SF1 construct in the cell, PRPF40A WW12 in the syringe (as shown in Supplementary Figures 7 and 16A); 25 °C, 20 mM sodium phosphate pH 6.5, 100 mM NaCl; one-site binding model; at least duplicates; affinities apparent
Settings in all cases: both partners purified
[1] = biological target: T1, GB1-polyproline peptide P22
T1 chain: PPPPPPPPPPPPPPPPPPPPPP

[2] = biological target: T2, GB1-SF1 Pro D (residues 594-639) (UniProt Q15637 594-639)
T2 construct: splicing factor 1 (SF1), residues 594-639 of the proline-rich C-terminal region; His6-GB1-TEV site cassette of the pET24 vector, not cleaved; source: E. coli BL21(DE3), purified (Ni-NTA, SEC); not shown: GB1, N-terminal, kept
T2 chain (looked up): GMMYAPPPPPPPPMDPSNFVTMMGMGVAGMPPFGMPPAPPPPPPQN

[3] = biological target: T3, GB1-polyproline peptide P16
T3 chain: PPPPPPPPPPPPPPPP

[4] = biological target: T4, GB1-polyproline peptide P10
T4 chain: PPPPPPPPPP

[5] = biological target: T5, GB1-polyproline peptide P25
T5 chain: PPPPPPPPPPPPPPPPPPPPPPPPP

[6] = biological target: T6, GB1-SF1 Pro B (residues 468-539) (UniProt Q15637 468-539)
T6 construct: splicing factor 1 (SF1), residues 468-539 of the proline-rich C-terminal region; His6-GB1-TEV site cassette of the pET24 vector, not cleaved; source: E. coli BL21(DE3), purified (Ni-NTA, SEC); not shown: GB1, N-terminal, kept
T6 sequence (looked up): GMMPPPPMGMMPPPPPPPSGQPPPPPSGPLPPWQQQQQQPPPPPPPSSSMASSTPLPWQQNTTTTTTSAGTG

[7] = biological target: T7, GB1-SF1 Pro C (residues 539-594) (UniProt Q15637 539-594)
T7 construct: splicing factor 1 (SF1), residues 539-594 of the proline-rich C-terminal region (holds the WWbs motif 575-590); His6-GB1-TEV site cassette of the pET24 vector, not cleaved; source: E. coli BL21(DE3), purified (Ni-NTA, SEC); not shown: GB1, N-terminal, kept
T7 sequence (looked up): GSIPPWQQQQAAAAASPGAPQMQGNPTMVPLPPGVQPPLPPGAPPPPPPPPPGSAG

[8] = biological target: T8, GB1-polyproline peptide P29
T8 chain: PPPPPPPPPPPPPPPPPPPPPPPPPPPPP

[9] = biological target: T9, GB1-SF1 16-mer peptide 565-580
T9 chain: TMVPLPPGVQPPLPPG

[10] = biological target: T10, GB1-polyproline peptide P19
T10 chain: PPPPPPPPPPPPPPPPPPP

[11] = biological target: T11, GB1-polyproline peptide P13
T11 chain: PPPPPPPPPPPPP

[12] = biological target: T12, GB1-SF1 Pro A (residues 410-468) (UniProt Q15637 410-468)
T12 construct: splicing factor 1 (SF1), residues 410-468 of the proline-rich C-terminal region; His6-GB1-TEV site cassette of the pET24 vector, not cleaved; source: E. coli BL21(DE3), purified (Ni-NTA, SEC); not shown: GB1, N-terminal, kept
T12 sequence (looked up): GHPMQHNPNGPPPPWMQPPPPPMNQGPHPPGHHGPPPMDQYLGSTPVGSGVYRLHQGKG

B1: PRPF40A WW12 (tandem WW domains, residues 141-236) (domain or fragment, human, UniProt O75400 141-236, looked up)
chain: GAKSMWTEHKSPDGRTYYYNTETKQSTWEKPDDLKTPAEQLLSKCPWKEYKSDSGKPYYYNSQTKESRWAKPKELEDLEGYQNTIVAGSLITKSNL
notes: A few vector residues probably remain at the N-terminus after TEV cleavage (pETM11, NcoI site); 15N-labelled in the NMR experiments; also called PRPF40A WW tandem; WW12 wt; source: E. coli BL21(DE3), purified (Ni-NTA, TEV digestion, reverse Ni-NTA, SEC); not shown: His6, N-terminal, cleaved
[1]
  stoichiometry N: 1.39 ± 0.03 sites
[2]
  stoichiometry N: 0.87 ± 0.02 sites
[3]
  stoichiometry N: 0.88 ± 0.08 sites
[4]
  stoichiometry N: 0.89 ± 0.11 sites
[5]
  stoichiometry N: 2.3 ± 0.09 sites
[6]
  stoichiometry N: 1.15 ± 0.15 sites
[7]
  stoichiometry N: 0.88 ± 0.01 sites
[8]
  stoichiometry N: 2.47 ± 0.09 sites
[9]
  stoichiometry N: 1.06 ± 0.11 sites
[10]
  stoichiometry N: 1.1 ± 0.04 sites
[11]
  stoichiometry N: 0.78 ± 0.07 sites
[12]
  stoichiometry N: 0.99 ± 0.17 sites
